Results: the supplement of paper PMC10567573

B1: VPS39 (parent)
chain: ITEEKVCMVCKKKIGNSAFARYPN
B2: CLCN6 (parent)
chain: ILRSQLVTLLVRGVCYSESQSSAS

Variants of: B1
Assay: protein stability index of a GFP-peptide fusion (GPS, HEK-293T) (PSI 1-6); higher = more stable
Conditions: c terminus: a fixed tail appended
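Note: lentivirally expressed fusions sorted by FACS into six bins by GFP to DsRed ratio, PSI derived from sequencing read proportions per bin multiplied by bin number.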

Going from ITEEKVCEVCKKKIGNSAFARYPN [M8E] to ITEEKVCCVCKKKIGNSAFARYPN [M8C], the protein stability index falls from 2.85 to 2.44.

First: ITEEKVCIVCKKKIGNSAFARYPN [M8I]
Second: ITEEKVCWVCKKKIGNSAFARYPN [M8W]
The protein stability index of the first is higher: 2.6 for the first, 1.51 for the second.

Going from ITEEKVCTVCKKKIGNSAFARYPN [M8T] to ITEEKVCSVCKKKIGNSAFARYPN [M8S], the protein stability index rises from 2.43 to 3.29.

Compared with ITEEKVCLVCKKKIGNSAFARYPN [M8L], ITEEKVCMHCKKKIGNSAFARYPN [V9H] is higher in protein stability index: 2.65 for the first, 2.87 for the second.

Compared with ITEEKVCMNCKKKIGNSAFARYPN [V9N], ITEEKVCMLCKKKIGNSAFARYPN [V9L] is lower in protein stability index: 3.33 for the first, 2.83 for the second.

First: ITEEKVCMFCKKKIGNSAFARYPN [V9F]
Second: ITEEKVCMSCKKKIGNSAFARYPN [V9S]
The protein stability index of the first is lower: 2.27 for the first, 3.35 for the second.

Going from ITEEKVCMQCKKKIGNSAFARYPN [V9Q] to ITEEKVCMKCKKKIGNSAFARYPN [V9K], the protein stability index rises from 3.4 to 3.58.

First: ITEEKVCMCCKKKIGNSAFARYPN [V9C]
Second: ITEEKVCMTCKKKIGNSAFARYPN [V9T]
The protein stability index of the first is higher: 2.67 for the first, 2.51 for the second.

Compared with ITEEKVCMMCKKKIGNSAFARYPN [V9M], ITEEKVCMPCKKKIGNSAFARYPN [V9P] is higher in protein stability index: 2.69 for the first, 3.59 for the second.

Compared with ITEEKVCMYCKKKIGNSAFARYPN [V9Y], ITEEKVCMGCKKKIGNSAFARYPN [V9G] is higher in protein stability index: 1.99 for the first, 3.1 for the second.

First: ITEEKVCMDCKKKIGNSAFARYPN [V9D]
Second: ITEEKVCMICKKKIGNSAFARYPN [V9I]
The protein stability index of the first is higher: 2.71 for the first, 2.06 for the second.

Compared with ITEEKVCMECKKKIGNSAFARYPN [V9E], ITEEKVCMRCKKKIGNSAFARYPN [V9R] is higher in protein stability index: 3.53 for the first, 3.61 for the second.

Compared with ITEEKVCMACKKKIGNSAFARYPN [V9A], ITEEKVCMWCKKKIGNSAFARYPN [V9W] is lower in protein stability index: 3.05 for the first, 2.34 for the second.

Compared with ITEEDVCMVCKKKIGNSAFARYPN [K5D], ITEEEVCMVCKKKIGNSAFARYPN [K5E] is lower in protein stability index: 2.65 for the first, 2.62 for the second.

Compared with ITEEIVCMVCKKKIGNSAFARYPN [K5I], ITEENVCMVCKKKIGNSAFARYPN [K5N] is higher in protein stability index: 1.78 for the first, 3.66 for the second.

First: ITEETVCMVCKKKIGNSAFARYPN [K5T]
Second: ITEEPVCMVCKKKIGNSAFARYPN [K5P]
The protein stability index of the first is lower: 2.09 for the first, 2.87 for the second.

Compared with ITEEVVCMVCKKKIGNSAFARYPN [K5V], ITEEHVCMVCKKKIGNSAFARYPN [K5H] is higher in protein stability index: 1.98 for the first, 2.17 for the second.

Going from ITEEFVCMVCKKKIGNSAFARYPN [K5F] to ITEECVCMVCKKKIGNSAFARYPN [K5C], the protein stability index falls from 2.21 to 2.04.

Compared with ITEEYVCMVCKKKIGNSAFARYPN [K5Y], ITEERVCMVCKKKIGNSAFARYPN [K5R] is higher in protein stability index: 1.55 for the first, 1.65 for the second.

Going from ITEEGVCMVCKKKIGNSAFARYPN [K5G] to ITEEAVCMVCKKKIGNSAFARYPN [K5A], the protein stability index rises from 2.33 to 2.63.

First: ITEESVCMVCKKKIGNSAFARYPN [K5S]
Second: ITEEWVCMVCKKKIGNSAFARYPN [K5W]
The protein stability index of the first is higher: 2.53 for the first, 2.28 for the second.

Going from ITEEMVCMVCKKKIGNSAFARYPN [K5M] to ITEEQVCMVCKKKIGNSAFARYPN [K5Q], the protein stability index rises from 2.23 to 2.42.

Going from ITEELVCMVCKKKIGNSAFARYPN [K5L] to ITLEKVCMVCKKKIGNSAFARYPN [E3L], the protein stability index falls from 2.06 to 1.91.

Going from ITIEKVCMVCKKKIGNSAFARYPN [E3I] to ITSEKVCMVCKKKIGNSAFARYPN [E3S], the protein stability index falls from 3 to 1.97.

First: ITNEKVCMVCKKKIGNSAFARYPN [E3N]
Second: ITVEKVCMVCKKKIGNSAFARYPN [E3V]
The protein stability index of the first is higher: 1.84 for the first, 1.82 for the second.

Compared with ITTEKVCMVCKKKIGNSAFARYPN [E3T], ITFEKVCMVCKKKIGNSAFARYPN [E3F] is lower in protein stability index: 1.97 for the first, 1.51 for the second.

Compared with ITYEKVCMVCKKKIGNSAFARYPN [E3Y], ITKEKVCMVCKKKIGNSAFARYPN [E3K] is lower in protein stability index: 2.03 for the first, 1.44 for the second.

Going from ITHEKVCMVCKKKIGNSAFARYPN [E3H] to ITGEKVCMVCKKKIGNSAFARYPN [E3G], the protein stability index rises from 1.94 to 2.13.

Going from ITDEKVCMVCKKKIGNSAFARYPN [E3D] to ITPEKVCMVCKKKIGNSAFARYPN [E3P], the protein stability index falls from 2.55 to 2.25.

Going from ITMEKVCMVCKKKIGNSAFARYPN [E3M] to ITREKVCMVCKKKIGNSAFARYPN [E3R], the protein stability index rises from 1.39 to 3.83.

First: ITCEKVCMVCKKKIGNSAFARYPN [E3C]
Second: ITQEKVCMVCKKKIGNSAFARYPN [E3Q]
The protein stability index of the first is lower: 1.26 for the first, 2.53 for the second.

Compared with ITWEKVCMVCKKKIGNSAFARYPN [E3W], ITAEKVCMVCKKKIGNSAFARYPN [E3A] is higher in protein stability index: 1.96 for the first, 1.97 for the second.

Going from ITEEKVPMVCKKKIGNSAFARYPN [C7P] to ITEEKVGMVCKKKIGNSAFARYPN [C7G], the protein stability index falls from 3.64 to 2.46.

Compared with ITEEKVHMVCKKKIGNSAFARYPN [C7H], ITEEKVYMVCKKKIGNSAFARYPN [C7Y] is lower in protein stability index: 3.47 for the first, 2.53 for the second.

First: ITEEKVDMVCKKKIGNSAFARYPN [C7D]
Second: ITEEKVAMVCKKKIGNSAFARYPN [C7A]
The protein stability index of the first is higher: 4.19 for the first, 2.81 for the second.

Going from ITEEKVEMVCKKKIGNSAFARYPN [C7E] to ITEEKVRMVCKKKIGNSAFARYPN [C7R], the protein stability index falls from 4.24 to 2.54.

Going from ITEEKVFMVCKKKIGNSAFARYPN [C7F] to ITEEKVQMVCKKKIGNSAFARYPN [C7Q], the protein stability index rises from 2.78 to 3.31.

Going from ITEEKVKMVCKKKIGNSAFARYPN [C7K] to ITEEKVWMVCKKKIGNSAFARYPN [C7W], the protein stability index falls from 3.1 to 2.02.

First: ITEEKVIMVCKKKIGNSAFARYPN [C7I]
Second: ITEEKVSMVCKKKIGNSAFARYPN [C7S]
The protein stability index of the first is lower: 2.2 for the first, 2.98 for the second.

First: ITEEKVNMVCKKKIGNSAFARYPN [C7N]
Second: ITEEKVTMVCKKKIGNSAFARYPN [C7T]
The protein stability index of the first is higher: 4.1 for the first, 3.18 for the second.

Going from ITEEKVLMVCKKKIGNSAFARYPN [C7L] to ITEEKVMMVCKKKIGNSAFARYPN [C7M], the protein stability index rises from 2.77 to 2.79.

For ITEEKVVMVCKKKIGNSAFARYPN [C7V], the protein stability index was 3.31.

Variants of: B2
Assay: as above
Conditions: c terminus: a fixed tail appended

Going from ILRSTLVTLLVRGVCYSESQSSAS [Q5T] to ILMSQLVTLLVRGVCYSESQSSAS [R3M], the protein stability index rises from 2.06 to 2.62.

Going from ILRSQLVTLLVRGVCWSESQSSAS [Y16W] to ILRSQLVTLLVRGVCYSESQNSAS [S21N], the protein stability index rises from 2.61 to 2.81.

Compared with ILRSQLVTLLVRGVCYSQSQSSAS [E18Q], ILRSQLVTLLVRGVCYSLSQSSAS [E18L] is higher in protein stability index: 2.09 for the first, 2.71 for the second.

Compared with ILRSQLVTLLVRGVCYSESQSSIS [A23I], ILRSQLVWLLVRGVCYSESQSSAS [T8W] is lower in protein stability index: 4.16 for the first, 2.28 for the second.

Going from ILRSQLVTLLVREVCYSESQSSAS [G13E] to ILRSQLVTLLVRGVCYSESQSSAK [S24K], the protein stability index rises from 1.72 to 2.49.

For ILRSQHVTLLVRGVCYSESQSSAS [L6H], the protein stability index was 2.17.
